{"source": "paper PMC7020344", "about": "“The eEF2 kinase-induced STAT3 inactivation inhibits lung cancer cell proliferation by phosphorylation of PKM2” (Cell Communication and Signaling : CCS, 2020)", "target": "the molecule itself", "test": "cross-linking; A549 cells washed with PBS pH 8.0 and treated with BS3 for 1 h at room temperature before lysis in loading buffer; dimers and tetramers by immunoblot; cells with eEF2K depletion, overexpression or A484954", "note": "Where “and” joins values, the source holds several entries; their conditions need not be identical. Equal values may be shown once."}
{"protein": "FLAG-PKM2 T129A (enzyme, human PKM2 from the vector pWZL-FLAG-PKM2 (Addgene #20585) with the point mutation T129A made by PCR mutagenesis; source: A549 cells expressing it, in cells (cross-linked with BS3 before lysis)) not shown", "values": [{"measurement": "stoichiometry N", "value": "4 and 2"}]}
